{"source": "patent US20140127127", "tested_on": "L-pyroglutamyl-L-prolyl-L-arginine-p-nitroaniline hydrochloride", "data": [{"substance": "recombinant human hepsin extracellular region (Ser46 to Leu417), produced in P. pastoris", "values": [{"measurement": "Km", "result": "0.4 nM hepsin, Km=170 µM"}, {"measurement": "enzymatic cleavage of chromogenic substrate", "result": "The purified hepsin was enzymatically active (FIG. 1B), cleaving the chromogenic serine protease substrate pyroGlu-Pro-Arg-pNA"}]}]}
